# Results from patent publication US20220332804A1 (CSL INNOVATION, published 2022).
# T1: human C2 Y558A (human, UniProt P06681 21-752)
# T1 sequence: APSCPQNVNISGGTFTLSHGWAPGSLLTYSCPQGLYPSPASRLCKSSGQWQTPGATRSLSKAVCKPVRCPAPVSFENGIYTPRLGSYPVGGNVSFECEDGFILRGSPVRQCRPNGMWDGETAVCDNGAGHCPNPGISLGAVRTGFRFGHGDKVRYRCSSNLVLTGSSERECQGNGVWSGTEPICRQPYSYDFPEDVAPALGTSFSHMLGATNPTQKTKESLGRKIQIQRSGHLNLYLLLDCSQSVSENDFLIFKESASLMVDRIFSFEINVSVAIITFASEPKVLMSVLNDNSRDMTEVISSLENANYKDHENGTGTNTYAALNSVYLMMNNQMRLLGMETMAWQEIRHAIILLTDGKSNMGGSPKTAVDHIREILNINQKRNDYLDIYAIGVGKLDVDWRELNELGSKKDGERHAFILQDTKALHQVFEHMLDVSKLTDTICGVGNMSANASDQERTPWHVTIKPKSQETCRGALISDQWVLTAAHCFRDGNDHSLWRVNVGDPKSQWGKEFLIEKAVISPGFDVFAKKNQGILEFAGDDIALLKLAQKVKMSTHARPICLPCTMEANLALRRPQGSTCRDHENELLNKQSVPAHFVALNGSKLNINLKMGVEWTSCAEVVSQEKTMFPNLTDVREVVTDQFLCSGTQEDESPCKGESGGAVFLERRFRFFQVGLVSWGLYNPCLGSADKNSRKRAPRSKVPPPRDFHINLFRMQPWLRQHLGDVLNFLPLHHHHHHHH
# T2: human C2 E324A (human, UniProt P06681 21-752)
# T2 sequence: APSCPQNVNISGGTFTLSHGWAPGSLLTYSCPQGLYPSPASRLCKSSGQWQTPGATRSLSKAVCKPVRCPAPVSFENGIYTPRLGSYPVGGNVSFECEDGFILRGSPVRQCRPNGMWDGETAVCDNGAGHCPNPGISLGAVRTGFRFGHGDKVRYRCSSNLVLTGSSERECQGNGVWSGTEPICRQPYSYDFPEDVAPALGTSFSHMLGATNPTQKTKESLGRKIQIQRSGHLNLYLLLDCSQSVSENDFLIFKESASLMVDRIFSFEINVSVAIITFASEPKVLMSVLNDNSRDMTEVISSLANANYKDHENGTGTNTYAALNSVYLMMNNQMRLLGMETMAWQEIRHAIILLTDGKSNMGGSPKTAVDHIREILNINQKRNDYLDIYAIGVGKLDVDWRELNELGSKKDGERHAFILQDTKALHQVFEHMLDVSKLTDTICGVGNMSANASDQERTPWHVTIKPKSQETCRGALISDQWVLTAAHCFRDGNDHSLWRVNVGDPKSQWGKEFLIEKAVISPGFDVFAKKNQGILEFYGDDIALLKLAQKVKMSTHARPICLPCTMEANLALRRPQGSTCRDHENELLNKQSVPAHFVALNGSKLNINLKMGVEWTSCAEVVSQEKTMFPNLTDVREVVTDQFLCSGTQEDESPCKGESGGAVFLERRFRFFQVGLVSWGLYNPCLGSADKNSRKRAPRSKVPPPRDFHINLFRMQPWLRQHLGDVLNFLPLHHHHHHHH
# T3: human C2 A709S (human, UniProt P06681 21-752)
# T3 sequence: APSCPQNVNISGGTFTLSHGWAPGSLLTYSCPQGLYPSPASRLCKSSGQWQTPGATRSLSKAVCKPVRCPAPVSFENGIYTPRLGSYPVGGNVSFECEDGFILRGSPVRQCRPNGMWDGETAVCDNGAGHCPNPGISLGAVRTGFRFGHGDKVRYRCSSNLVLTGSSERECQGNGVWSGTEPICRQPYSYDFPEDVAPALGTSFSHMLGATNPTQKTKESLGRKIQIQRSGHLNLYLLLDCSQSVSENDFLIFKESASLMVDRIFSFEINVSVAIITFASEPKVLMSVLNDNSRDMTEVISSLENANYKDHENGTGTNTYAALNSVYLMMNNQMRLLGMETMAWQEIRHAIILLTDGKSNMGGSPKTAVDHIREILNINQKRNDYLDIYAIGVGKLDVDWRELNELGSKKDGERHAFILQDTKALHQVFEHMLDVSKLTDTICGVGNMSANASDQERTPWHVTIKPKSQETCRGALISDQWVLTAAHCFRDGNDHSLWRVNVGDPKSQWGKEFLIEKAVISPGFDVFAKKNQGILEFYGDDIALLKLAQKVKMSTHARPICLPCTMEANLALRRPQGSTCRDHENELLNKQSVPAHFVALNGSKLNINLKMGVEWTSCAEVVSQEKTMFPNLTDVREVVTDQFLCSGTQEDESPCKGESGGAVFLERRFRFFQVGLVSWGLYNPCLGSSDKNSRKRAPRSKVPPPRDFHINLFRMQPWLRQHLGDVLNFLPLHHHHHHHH
# T4: human C2 R434A (human, UniProt P06681 21-752)
# T4 sequence: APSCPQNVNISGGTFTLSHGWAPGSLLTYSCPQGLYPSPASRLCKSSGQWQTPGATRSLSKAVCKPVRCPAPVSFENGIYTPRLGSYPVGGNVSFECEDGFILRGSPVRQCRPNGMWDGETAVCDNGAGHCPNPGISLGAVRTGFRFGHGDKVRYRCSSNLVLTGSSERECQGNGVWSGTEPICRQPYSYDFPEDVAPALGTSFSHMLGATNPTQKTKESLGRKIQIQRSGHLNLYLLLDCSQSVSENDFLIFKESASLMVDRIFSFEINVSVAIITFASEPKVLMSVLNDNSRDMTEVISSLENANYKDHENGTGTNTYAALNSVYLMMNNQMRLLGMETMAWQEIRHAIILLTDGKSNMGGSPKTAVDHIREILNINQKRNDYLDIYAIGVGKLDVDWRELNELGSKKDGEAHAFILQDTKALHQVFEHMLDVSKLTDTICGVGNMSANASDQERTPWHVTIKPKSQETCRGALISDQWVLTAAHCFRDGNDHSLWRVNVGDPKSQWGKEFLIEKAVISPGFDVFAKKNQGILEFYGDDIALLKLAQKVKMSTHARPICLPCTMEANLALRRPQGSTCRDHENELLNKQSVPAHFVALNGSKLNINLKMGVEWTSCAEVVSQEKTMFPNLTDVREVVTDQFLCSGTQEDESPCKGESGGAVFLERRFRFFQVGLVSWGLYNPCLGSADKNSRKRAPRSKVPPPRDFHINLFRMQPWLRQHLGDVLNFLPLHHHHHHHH
# Key:
# Experiment in all cases: SPR, KD relative to WT C2;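 note: biacore SPR at 37 °C, anti-C2 mAbs captured via immobilised goat anti-human IgG, C2 alanine or serine surface mutants as analytes, 1:1 model fitted, double-referenced sensograms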
# [1] = target: T1, human C2 Y558A
# [2] = target: T2, human C2 E324A
# [3] = target: T3, human C2 A709S
# [4] = target: T4, human C2 R434A
binder,measurement,setting,value
"RF16-226 (antibody, human IgG4 S228P, lambda, pH-dependent anti-C2 antibody from a phage display library; also called WT) heavy: not shown light: SYELTQPPSVSVSPGQTARITCSGDALTSKYVAWYQQKSGLAPLLVIYEDTRRPSGIPAKFSGSSSGSVATLTISGAHGDDEADYYCYSTDASGHQRVFGGGTKLTVLSQPKAAPSVTLFPPSSEELQANKATLVCLISDFYPGAVTVAWKADGSPVKAGVETTKPSKQSNNKYAASSYLSLTPEQWKSHRSYSCQVTHEGSTVEKTVAPTECS",Fold diff,[1],16 fold
same,Fold diff,[2],1 fold
same,Fold diff,[3],13 fold
same,Fold diff,[4],14 fold
